Measured values from patent US20050003397A1.

Biological target: BAT monoclonal antibody
Experiment: competition phage ELISA; BAT (6 µg/ml) pre-incubated with increasing synthetic Peptide A, binding to immobilized Peptide A phage read

- IC50: 660 nM
B1: Peptide A (synthetic peptide of SEQ ID NO 1) (peptide)
peptide: PRRIKPRKIMLQ
